Measured values from PMC8280819 (The EMBO Journal, 2021).

Columns and labels:
[1] = molecular target: T1, His-AosR (Mycobacterium tuberculosis H37Rv, UniProt P9WM25 1-218); test: EMSA
T1 sequence: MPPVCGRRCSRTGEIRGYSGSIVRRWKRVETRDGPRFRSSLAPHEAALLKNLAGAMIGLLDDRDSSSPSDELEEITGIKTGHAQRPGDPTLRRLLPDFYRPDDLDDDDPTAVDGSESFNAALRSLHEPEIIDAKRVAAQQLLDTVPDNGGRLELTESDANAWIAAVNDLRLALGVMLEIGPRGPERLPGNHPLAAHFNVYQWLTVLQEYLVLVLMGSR

[2] = molecular target: His-SigH (Mycobacterium tuberculosis H37Rv, UniProt P9WGH9 1-216); test: EMSA
Sequence of His-SigH (P9WGH9 whole entry): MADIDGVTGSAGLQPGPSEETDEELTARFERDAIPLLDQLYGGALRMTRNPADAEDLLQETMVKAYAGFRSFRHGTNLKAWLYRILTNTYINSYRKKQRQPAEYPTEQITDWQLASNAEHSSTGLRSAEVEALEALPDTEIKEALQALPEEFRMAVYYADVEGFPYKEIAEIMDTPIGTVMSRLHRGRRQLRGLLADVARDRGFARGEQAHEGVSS

B1: 100 bp upstream of mec (intragenic auxiliary promoter) (dsDNA)
DNA 1: AGTCGTGCGGTGCTGGCCGGCGTGCTCAATGCTCAGCCGGTAGCCGGAATACCGACCTACCGTGACATGTTTTCCCGGAGCATTCGGGTCTTGAAACTCA
DNA 2: TATGAGTTTCAGGACCCGAATGCTCCCCGGGAAACATGTCACGGTAGGTCGGTATTCCGGCTACCGGCTGAGCATTGAGCACGCCGGCCAGCCACCGCACGACT
B1: binds [1]; binds [2].
